The target of assay [1] is SyPg(234), synaptophysin-plakoglobin chimera truncated after plakoglobin residue 234 (rat | human) (UniProt P07825). The experiment in a line: co-IP.
For assay [2], the target named is SyPg(580), synaptophysin-plakoglobin chimera truncated after plakoglobin residue 580 (rat | human) (UniProt P07825). Briefly: co-IP.
Assay [3] addresses recombinant human plakoglobin, complete (pQPg) (human) (UniProt P14923). Briefly: ELISA.

Some results are limits rather than exact numbers.

Sequence of UniProt P14923 (P14923 whole entry): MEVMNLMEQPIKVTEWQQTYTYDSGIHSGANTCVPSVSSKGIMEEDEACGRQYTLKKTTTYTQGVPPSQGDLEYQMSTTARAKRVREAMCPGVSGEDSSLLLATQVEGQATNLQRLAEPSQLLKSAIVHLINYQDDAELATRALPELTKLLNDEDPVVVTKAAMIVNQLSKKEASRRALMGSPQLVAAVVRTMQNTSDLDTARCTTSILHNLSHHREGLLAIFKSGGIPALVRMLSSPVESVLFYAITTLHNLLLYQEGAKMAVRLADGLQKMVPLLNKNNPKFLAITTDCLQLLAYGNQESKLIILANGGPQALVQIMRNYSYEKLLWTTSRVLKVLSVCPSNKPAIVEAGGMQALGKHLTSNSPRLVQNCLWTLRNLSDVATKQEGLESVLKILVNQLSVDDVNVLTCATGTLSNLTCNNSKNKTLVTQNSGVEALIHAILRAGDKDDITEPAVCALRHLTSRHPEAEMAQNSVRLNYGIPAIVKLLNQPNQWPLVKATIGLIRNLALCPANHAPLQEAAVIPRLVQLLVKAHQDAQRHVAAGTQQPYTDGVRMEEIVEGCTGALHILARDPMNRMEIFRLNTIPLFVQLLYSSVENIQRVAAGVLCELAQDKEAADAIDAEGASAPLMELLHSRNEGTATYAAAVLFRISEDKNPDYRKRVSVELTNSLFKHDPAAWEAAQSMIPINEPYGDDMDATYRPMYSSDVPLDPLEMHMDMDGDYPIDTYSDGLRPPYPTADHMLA

As to “endogenous desmoglein (Dsg) (from UniProt Q14126 50-1118) (natural protein)”, the Dsg coprecipitated relative to SyPg (fraction of that with SyPg) in assay [1] and in assay [2] was less than 0.33 each time. Turning to “HCDc, his-tagged cadherin tail with the IA subdomain and C-domain of bovine Dsc1 (domain or fragment)”, in assay [3], the fold weaker binding than HCDg worked out at 2 fold.

Turning to “HCUv, his-tagged cadherin tail with the IA subdomain of bovine Dsc1 and the C-subdomain of murine E-cadherin”, the fold weaker binding than HCDg in assay [3] was determined as 5 fold.

These data come from PMC2120792.
